The labels stand for the following.
B1: INTS3 (parent)
chain: DLNSKGKKREFRFHPIKETVVEEP
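Note: lentivirally expressed fusions sorted by FACS into six bins by GFP to DsRed ratio, PSI derived from sequencing read proportions per bin multiplied by bin number.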

In this data set the parent is B1. Briefly: protein stability index of a GFP-peptide fusion (GPS, HEK-293T) (PSI 1-6); higher = more stable. The following applies: c terminus: a fixed tail appended.
For the variant DLNSKGKKREFRFHPIKETVVEFP, the protein stability index was determined as 1.71. Next, DLNSKGKKREFRFHPIKETVVETP: 2.24; DLNSKGKKREFRFHPIKETVVEMP: 2.02. Next, DLNSKGKKREFRFHPIKETVVESP: 1.58; DLNSKGKKREFRFHPIKETVVEKP: 2.27; DLNSKGKKREFRFHPIKETVVELP: 2.19. Next, DLNSKGKKREFRFHPIKETVVENP: 1.73; DLNSKGKKREFRFHPIKETVVEYP: 1.71; DLNSKGKKREFRFHPIKETVVEPP: 2.36. For DLNSKGKKREFRFHPIKETVVEDP, the protein stability index stood at 2.45.

In the case of DLNSKGKKREFRFHPIKETVVERP, the protein stability index came to 2.04. With DLNSKGKKREFRFHPIKETVVEGP, the protein stability index was 2.13. Next, DLNSKGKKREFRFHPIKETVVEVP: 2.25. Next, DLNSKGKKREFRFHPIKETVVEQP: 2.35. Next, DLNSKGKKREFRFHPIKETVVEAP: 1.81; DLNSKGKKREFRFHPIKETVVECP: 3.71. As for DLNSKGKKREFRFHPIKETVVEWP, the protein stability index amounted to 1.48. Next, DLNSKGKKREFRFHPIKETVVEHP: 1.99.

Consider DLNSKGKKREFRFHPIKETVVEIP, for which the protein stability index turned out to be 2.24.

DLNSKGKKREFRFHPIKETTVEEP: the protein stability index came out at 2.09. In the case of DLNSKGKKREFRFHPIKETLVEEP, the protein stability index was determined as 1.99. Next, DLNSKGKKREFRFHPIKETQVEEP: 2.65; DLNSKGKKREFRFHPIKETKVEEP: 2.16; DLNSKGKKREFRFHPIKETCVEEP: 2.29.

As to DLNSKGKKREFRFHPIKETMVEEP, the protein stability index stood at 2.25.

As to DLNSKGKKREFRFHPIKETGVEEP, the protein stability index stood at 2.07. Next, DLNSKGKKREFRFHPIKETIVEEP: 1.97. As for DLNSKGKKREFRFHPIKETFVEEP, the protein stability index was 1.9. Next, DLNSKGKKREFRFHPIKETRVEEP: 1.77. Turning to DLNSKGKKREFRFHPIKETEVEEP, the protein stability index was 2.54.

Regarding DLNSKGKKREFRFHPIKETSVEEP, the protein stability index stood at 2.07.

With DLNSKGKKREFRFHPIKETYVEEP, the protein stability index was 1.92. Consider DLNSKGKKREFRFHPIKETHVEEP, for which the protein stability index came out at 2.6. Next, DLNSKGKKREFRFHPIKETPVEEP: 2.73; DLNSKGKKREFRFHPIKETDVEEP: 2.87; DLNSKGKKREFRFHPIKETNVEEP: 2.37. Next, DLNSKGKKREFRFHPIKETWVEEP: 3.44; DLNSKGKKREFRFHPIKETAVEEP: 2.3; DLNSKGKKREFRFHPIKETVWEEP: 1.64. Next, DLNSKGKKREFRFHPIKETVMEEP: 2.08; DLNSKGKKREFRFHPIKETVCEEP: 2.49. Regarding DLNSKGKKREFRFHPIKETVLEEP, the protein stability index was found to be 2.54. Next, DLNSKGKKREFRFHPIKETVSEEP: 2.1. Next, DLNSKGKKREFRFHPIKETVIEEP: 1.99. Next, DLNSKGKKREFRFHPIKETVEEEP: 3.15; DLNSKGKKREFRFHPIKETVTEEP: 2.62; DLNSKGKKREFRFHPIKETVKEEP: 2.01.

Turning to DLNSKGKKREFRFHPIKETVGEEP, the protein stability index is 1.97.

On to DLNSKGKKREFRFHPIKETVQEEP, for which the protein stability index was found to be 2.06. For DLNSKGKKREFRFHPIKETVPEEP, the protein stability index turned out to be 2.22. As for DLNSKGKKREFRFHPIKETVNEEP, the protein stability index was 2.36. Next, DLNSKGKKREFRFHPIKETVHEEP: 2.12.

For the variant DLNSKGKKREFRFHPIKETVREEP, the protein stability index came to 1.6. With DLNSKGKKREFRFHPIKETVYEEP, the protein stability index was found to be 2. Next, DLNSKGKKREFRFHPIKETVFEEP: 1.96; DLNSKGKKREFRFHPIKETVAEEP: 2.01; DLNSKGKKREFRFHPIKETVDEEP: 2.71. Next, DLNSKGKKREFRFHPIKNTVVEEP: 1.63; DLNSKGKKREFRFHPIKITVVEEP: 1.96.

With DLNSKGKKREFRFHPIKLTVVEEP, the protein stability index amounted to 2.83. Consider DLNSKGKKREFRFHPIKMTVVEEP, for which the protein stability index was 2.28. Next, DLNSKGKKREFRFHPIKPTVVEEP: 2.19; DLNSKGKKREFRFHPIKSTVVEEP: 1.94. Next, DLNSKGKKREFRFHPIKYTVVEEP: 2.41.

As to DLNSKGKKREFRFHPIKATVVEEP, the protein stability index worked out at 2.42. Next, DLNSKGKKREFRFHPIKKTVVEEP: 1.79; DLNSKGKKREFRFHPIKQTVVEEP: 1.58. Regarding DLNSKGKKREFRFHPIKCTVVEEP, the protein stability index stood at 2.48. Next, DLNSKGKKREFRFHPIKVTVVEEP: 1.86; DLNSKGKKREFRFHPIKHTVVEEP: 2.13; DLNSKGKKREFRFHPIKDTVVEEP: 2.68. Next, DLNSKGKKREFRFHPIKTTVVEEP: 2.7; DLNSKGKKREFRFHPIKRTVVEEP: 1.87; DLNSKGKKREFRFHPIKWTVVEEP: 2.75.

As for DLNSKGKKREFRFHPIKGTVVEEP, the protein stability index came out at 2.1. Next, DLNSKGKKREFRFHPIKFTVVEEP: 2.1; DLNSKGKKREFRFHHIKETVVEEP: 3.09; DLNSKGKKREFRFHQIKETVVEEP: 2.6. DLNSKGKKREFRFHIIKETVVEEP: the protein stability index is 2.65.

Turning to DLNSKGKKREFRFHSIKETVVEEP, the protein stability index turned out to be 2.37. Next, DLNSKGKKREFRFHMIKETVVEEP: 2.29; DLNSKGKKREFRFHVIKETVVEEP: 3.25. Next, DLNSKGKKREFRFHAIKETVVEEP: 2.96; DLNSKGKKREFRFHEIKETVVEEP: 3.2. Next, DLNSKGKKREFRFHRIKETVVEEP: 2.9; DLNSKGKKREFRFHKIKETVVEEP: 3.18. Turning to DLNSKGKKREFRFHCIKETVVEEP, the protein stability index is 2.54.

For DLNSKGKKREFRFHFIKETVVEEP, the protein stability index came out at 2.44.

DLNSKGKKREFRFHTIKETVVEEP: the protein stability index turned out to be 2.96.

With DLNSKGKKREFRFHWIKETVVEEP, the protein stability index is 2.28.

With DLNSKGKKREFRFHDIKETVVEEP, the protein stability index was found to be 3.57. Next, DLNSKGKKREFRFHGIKETVVEEP: 3.15. Next, DLNSKGKKREFRFHLIKETVVEEP: 2.82; DLNSKGKKREFRFHNIKETVVEEP: 3.65.
